Here are results for 50 sequences from the domain aggregation screens of Martell et al. (2025).

This data set in a line: soluble fraction after stress (log2 fold change); higher = more stays soluble; pooled small domains, quantitative proteomics. Conditions: stress: pH 4. The procedure, abridged: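 With high-throughput quantitative proteomics, pooled custom libraries of small protein domains were measured after pH 4 stress. Each domain's soluble amount after the stress gives a fold change taken as aggregation propensity. Higher log2 values mean more of the domain stayed soluble.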

In the case of “HMFPELEPDEQLIADLLRKTNNLQINIITVRTGLPINRVTALLFQMEMKGVVRPLAGGTYHLLV”, the “soluble fraction (log2)” value was -0.389.
Then “HMFPELSPEEQLIVEVLSKTNDLQVNLISVKTNIDISRLTSLLFTLEMKGVIKTFAGGMYHLL”, with -0.712; and “HMFPSLSPEEQAVVDVLQRNNDLQINMLSVQSGLTISRLTALLFQLEMKGVIKPLAGGMYHLL”, with -0.493.
Then “HMFPTLSPEEQRIVDQLAKENDLQANVIALRTALTIPQISALLFSLEMKGMVRLYAGGTYHLI”, with -0.142.
Then “HMFQPEQISKLNELETLVLDFIIKSPDKVQKATIRSLATQLHVSTTTIVRMSTKLGFNGWSELKFFLKNQS”, with -0.65; and “HMFRDFSETLLRKLQAAGGFLPFTDKTDAEAIAEHFQVSKKTFKRAVGTLYKQRRILIDDEGITLIG”, with 0.252; and “HMFRPDYYEILQVDRHASPEVITAAYRQLLSIYNSEQDGNKQMIKLIQEAYGVLGDSQDRWLYDSWLDNN”, with -1.37.
For the sequence “HMFRSNAERAAHLASALPRAEAELAALQARGAATSENIYLRSSYFDALRYTEELRAAKRAQDALQGA”, the “soluble fraction (log2)” value is 0.0123.
In the case of “HMFSAASSQISSYVRSVVDKAQTYEQAYEILAKNPLGFKLDALEDELFRIIANAEILGADDDE”, the “soluble fraction (log2)” value is -1.24.
Then “HMFSNATISGLKAGALVRVYNISGVAVSTLTADAEGKVSVDLNNLPKGVYILSTPSKSFKVLN”, with 0.176; and “HMFSWRQHLDHFGFSDEIKKRLADAVFLNDDWNEIDRGVLTKEELLARFIENDPGIEKEIYMVMENIN”, with -1.78; and “HMFYPIAHTLTKLNIRSGPGEQYQKLATFENNHDLVVLTQQNEWVQVRGKSDEQVIIGWVHSSFLSPT”, with -1.33.
For “HMFYQLTENQRRILSSLEQNPRVSAAHLAEEIGISSRKVENNLKKLKEIGLLQRHGSPRKGYWSINQGW”, the “soluble fraction (log2)” value turned out to be 0.15.
Then “HMGAAAQLLHAVVLRVPAEDTMKFVSETPELRRYLGAPLGPTAALVRPGQEQELAAALQAHGILVEFDE”, with 0.12; and “HMGAAITEAEAKQIALDHAGVSESETERMRVKLGRDDGVQEYEVNFYVGNREYDYDINAATGEIRSHDSE”, with 0.22.
The same measure for “HMGADPTTWPEIDAFVGRVAVTATGLFPSGQVEIDGRRFEARLAFGVAEPGARVVVRRRTDFGLLVEKETR”: -0.531; for “HMGADRLVGMTAIVTATIDPNDTDRKGRVQVEGEVWSALSDGRLIITEGSKVRITEMHGTRVRVEAI”: -0.884.
On to “HMGAEWTEMRVWTSTSGSKVTAEASSLTNGQVTLETKSGKRITLSIRKLVEADQKFLEAHFSK”, for which the “soluble fraction (log2)” value came out at 0.101.
As to “HMGAGLLEPEPLKIEIQETQERLQKLQKALERDTETADSKERIKRAIEAHKARISQLQGLIE”, the “soluble fraction (log2)” value amounted to 0.0704.
Then “HMGAKVFTVPNLIGKYAIEAGIILKKEGLSEGEVKEENSDKYAAGQIIDQYPAADSPAKENDKINYVVSIG”, with -0.0221; and “HMGANSAYMAMRDRIQQRLLAELSPGVTRSDTAEVRRVVERIFNETTAELGLPLSRLERNDIFDLVLADIL”, with -1.72; and “HMGAPLAVGDSVRVVVSGPRAFVYTAPNGALSGAVRNGAAFTVLELSPDNTWARIGSGEWIKVEFLATG”, with -0.373.
The same measure for “HMGATYSQFLDQVDGGNVQKVTFSGDMRSGTNQISYTTRSGQSATITAPMDRDLINILRAKNVEIVQEEP”: 0.22; for “HMGAWQQTGFFRNRENAESLAEVLRQRGFSPVVREDTRPSGTVYYAVLVPDDGTTAARLKDAGIDSYPV”: 0.367; for “HMGDDYFTILGIERDATTDEIRSAYRRLSKKIHPDAQGSSALFRQVQEAYETLIDPSSRARYVAELNASQG”: -0.0836.
Then “HMGDERDRLLLARGKRIYQELIGSDRENVAAALREFEAVLAVNNRRAIHVMRQRLAELFGVYEEFLNEEFL”, with -1.29; and “HMGDEVAVTEILVKVGDTVEADQSLLTVEGDKASMEVPAPFAGVVKAIQVQLGDKVVTGSPIMLFEV”, with -0.88.
Regarding “HMGDFNYVMPDFRGLEAHDVSSFLNRNGFLLRPTEHEVSFTQRPGLILMHYPEPGYPFSRSSPITLVVS”, the “soluble fraction (log2)” value was -0.932.
The same measure for “HMGDGMEVWVNGSPVNLTGKDSFIFVDIFDFIDFDLTASKGRLIVIKVNGEYAEYTRPLHNGDTIEIYWEE”: -0.638; for “HMGDGRVGVITASIAYEYAKEVFPEGTSFLKLGLTFPLPMDLIRDFASKVEKLYVIEELEPL”: -1.72.
The same measure for “HMGDHYTALGLSIDATPEEIRSAYFLAARRSHPDANPDAQTTEWFLRVQEAYDILSNPRRRAEYDASLP”: -1.46.
Then “HMGDKRPIAVGDYVKLEGQDTPGQVLSISGKNATVGFGMLKTTVKLDRLRHTMAKPQTGASAGVR”, with not below 0.43; and “HMGDKVTIPNLIDMKLTDAQNQYKPQGFSIVKNGERESDKEAGTILEQDKAAGTEISGKDIRIFVVVSSGS”, with -0.302.
Regarding “HMGDLAAAGNHTLEVMGFPQHPDESYRHFVGNGIPKLIERMLPAGHDKETEQKAYDIFMEYYSAHK”, the “soluble fraction (log2)” value was -0.439.
For “HMGDPMAIMQLSSNTTPEYWEAYQKYHIQEYEQSNFIRYVNGISVLDDDFVDKVLITIDQHGRIFSELKS”, the “soluble fraction (log2)” value is -2.5.
With “HMGDSEMPVSEVVRLAKLDQISSIEISGTKLTIITNNLETYTSRIEENSTIIEILQRAGVDIGGLEIYPHG”, the “soluble fraction (log2)” value is -0.983.
Then “HMGDVSGFLRGVLADGPVPAKTVFSEASGAGYSRDQIQRAARKIGVERRKTGMAGGWVWELEP”, with -0.038.
Then “HMGEAYVVPNVKNKTLGEAQLALHNQKLEGLVVDSSYVKGLPDGMILDQNPAGGARVKEGRTIYLTITTS”, with -0.146; and “HMGEDFPYVAYATDSVRLRSKPSSSGDILAVIRQGDAVLITGSDGNYKIVEYEGRKGYVISAFLSQTP”, with -0.438.
Then “HMGEDLTIDQLAAEVDMTVRNIRAHQARGLLPPPTIKGRIGYYGPLHRRRLQQIRAMQEEGLNLAAIAKVV”, with -0.533; and “HMGEDPYQMLGLTRQASDEEVRLAWRKLMRENHPDSLASRGVPQEFVKRATEQVAQINAAWDRIKRERG”, with -0.0212; and “HMGEELIEIQNLRNKERREAEAILKNLDLVPVIQEQFDDTVPINRVITTDPGPDSTVKKGTTVMIYVSKGP”, with 0.289.
In the case of “HMGEENLKYPLLTDGSVKTTVLEAIDKDEKWLREELAKQGYDDLSKLFLVDYLGGQLVVTPY”, the “soluble fraction (log2)” value was -0.887.
The same measure for “HMGEESIAELISNPKLSDAKRTVILDLLSRGLTVDQIKPYIQSDDPYTAEQLQFELYKLFFTQI”: -1.34.
Regarding “HMGEGRVRLAQEAANRFMTAMAGDRPGFEEAGRALFAGDRARFHAETEGWPEDIRDHARRLAEPALQ”, the “soluble fraction (log2)” value was -0.0593.
Then “HMGEIILVPDVKAQGVSDARYTLNQAGLDAVIADSSYNRNSPPGAVLEQMPAPGSKVKSGHAIYLIINTT”, with 0.0604.
With “HMGELTSILVATKQIEPGETLSSSNTQVKSWISDLIPEGAITNPESVMGRTVSSVIGVGMPVVSLHLR”, the “soluble fraction (log2)” value was 0.0354.
The same measure for “HMGELVIPPLRERTVVDAVAEAERLGFVVQVEPVASSLPEGRVLGQSPEPGTRARKSQVVVLQVSRG”: 0.00536; for “HMGEPLTVVAAAGGDRLDRWLAGQLAGRSRAEIQRWIEAGQVTLAGRSLKASYRLSAGDAIDVAIPPPE”: -0.0638.
The same measure for “HMGEPVEIEEPITVRSLSEALGLKSSAIISHLMRQGVFATINQNLDKETAELIAAEYGIELRIK”: -0.0783.
